Results: article PMC10992996, “Human CRB1 and CRB2 form homo- and heteromeric protein complexes in the retina” (Life Science Alliance, 2024)

Biological target: T1, CRB1-FLAG p.C1174G (human, UniProt P82279 26-1406, p.C1174G)
T1 construct: Crumbs homolog 1, canonical form, human, cDNA NM_202153 as printed, with a patient missense mutation; Made by site-directed mutagenesis of m1; also called CRB1 p.C1174G; CRB1-FLAG MT; source: HEK293T, transfected, in lysate; not shown: Strep-Strep-FLAG, N-terminal, kept
T1 sequence (looked up): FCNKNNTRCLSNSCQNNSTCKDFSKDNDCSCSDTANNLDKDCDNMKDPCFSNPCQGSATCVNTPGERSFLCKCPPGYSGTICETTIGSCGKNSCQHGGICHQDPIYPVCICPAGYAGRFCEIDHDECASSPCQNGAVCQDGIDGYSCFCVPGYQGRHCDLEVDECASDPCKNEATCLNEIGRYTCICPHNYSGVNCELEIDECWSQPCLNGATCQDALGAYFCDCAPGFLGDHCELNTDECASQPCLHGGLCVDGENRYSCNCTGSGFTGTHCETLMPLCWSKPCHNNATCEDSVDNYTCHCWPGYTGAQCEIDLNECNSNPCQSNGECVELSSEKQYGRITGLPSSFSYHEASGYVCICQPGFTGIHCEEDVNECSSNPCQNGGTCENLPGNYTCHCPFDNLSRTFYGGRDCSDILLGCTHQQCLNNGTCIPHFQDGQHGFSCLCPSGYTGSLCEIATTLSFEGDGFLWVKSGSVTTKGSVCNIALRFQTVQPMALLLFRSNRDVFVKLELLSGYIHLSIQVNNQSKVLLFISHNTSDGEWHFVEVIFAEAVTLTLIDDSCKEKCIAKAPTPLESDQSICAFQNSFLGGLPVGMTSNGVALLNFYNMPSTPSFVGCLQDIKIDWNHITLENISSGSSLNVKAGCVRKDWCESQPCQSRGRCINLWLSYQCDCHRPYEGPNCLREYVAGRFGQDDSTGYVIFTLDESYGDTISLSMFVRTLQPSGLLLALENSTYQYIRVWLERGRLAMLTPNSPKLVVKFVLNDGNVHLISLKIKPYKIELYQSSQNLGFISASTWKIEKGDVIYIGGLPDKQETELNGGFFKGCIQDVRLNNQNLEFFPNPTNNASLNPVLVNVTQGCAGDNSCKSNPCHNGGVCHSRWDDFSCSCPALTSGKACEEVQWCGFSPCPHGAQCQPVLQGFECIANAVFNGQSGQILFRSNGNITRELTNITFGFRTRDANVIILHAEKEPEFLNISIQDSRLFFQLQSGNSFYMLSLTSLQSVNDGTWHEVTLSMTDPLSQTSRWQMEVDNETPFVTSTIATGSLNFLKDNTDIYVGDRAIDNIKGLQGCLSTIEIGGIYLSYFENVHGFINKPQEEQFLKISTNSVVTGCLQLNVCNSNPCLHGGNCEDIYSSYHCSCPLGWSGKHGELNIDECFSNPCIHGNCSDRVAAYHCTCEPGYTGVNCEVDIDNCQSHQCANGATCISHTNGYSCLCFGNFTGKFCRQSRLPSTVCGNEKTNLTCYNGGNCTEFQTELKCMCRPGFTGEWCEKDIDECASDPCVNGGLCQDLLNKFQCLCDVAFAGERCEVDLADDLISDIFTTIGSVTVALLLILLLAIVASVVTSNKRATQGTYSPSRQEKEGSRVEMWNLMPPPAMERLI
Test: co-IP; HEK293T cells co-transfected pairwise with a FLAG and an HA construct, 48 h; lysis in TBS (30 mM Tris-HCl pH 7.4, 150 mM NaCl) with 0.5% Nonidet P40; FLAG-IP on ANTI-FLAG M2 Affinity Gel 60-90 min at 4°C, elution with FLAG peptide; Western blot with HA and FLAG antibodies; for mutants HA/FLAG signal in eluates relative to WT, three biological replicates
Settings: partners not purified

percent reduction of the interaction relative to CRB1 WT: 17%
B1: Human canonical CRB2 (Crumbs homolog 2) (natural protein)
chain: not shown
notes: Crumbs homolog 2, human, cDNA NM_173689; Stood as bait (FLAG copy) and as prey (HA copy) in the pairwise co-IP matrix; each copy carries only one of the two tags; The FLAG copy was the bait of the mass spectrometry pull-downs; also called CRB2-FLAG; CRB2-HA; source: HEK293T, transfected, in lysate (co-IP); HEK293T, transfected, FLAG-IP on beads, washed and purified with 0.01% SDS (retina …)
